The supplement of paper PMC7125110
± gives the standard error. For some of these results: Fewer inactive variants are shown than the library holds.

B1: glmS ribozyme (parent)
chain: AUAAAAGCGCCAGAACUACAGAAAUGUAGUUGACGAGGAGGAGGUUUAUCGAAUUUUCGGCGGAUGCCUCCAAA

Columns and labels:
Conditions in all cases: with glucosamine-6-phosphate
glucosamine-6-phosphate [1] = variants of: B1; assay: kcat; higher = faster cleavage; RNA array
Summary of the method: (§1)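 Tiles bearing barcoded ribozyme variants, transcribed in situ by E. coli RNA polymerase on sequenced MiSeq chips, were imaged over ~14 h at 37 °C using a hybridised Cy3 probe. Glucosamine-6-phosphate was supplied at 40 μM to 10 mM in HEPES/KCl/Mg(OAc)2 buffer. kobs came from one- or two-exponential decay fits to normalised per-tile medians, and weighted Michaelis–Menten fits then provided kcat and KM.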

glucosamine-6-phosphate [2] = variants of: B1; assay: KM; higher = weaker cofactor use; RNA array
Summary of the method: as §1

glucosamine-6-phosphate [3] = variants of: B1; assay: self-cleavage kobs at 640 uM GlcN6P; higher = faster cleavage; RNA array
Summary of the method: as §1

glucosamine-6-phosphate [4] = variants of: B1; assay: self-cleavage kobs at 2500 uM GlcN6P; higher = faster cleavage; RNA array
Summary of the method: as §1

glucosamine-6-phosphate [5] = variants of: B1; assay: self-cleavage kobs at 10000 uM GlcN6P; higher = faster cleavage; RNA array
Summary of the method: as §1

glucosamine-6-phosphate [6] = variants of: B1; assay: self-cleavage kobs at 160 uM GlcN6P; higher = faster cleavage; RNA array
Summary of the method: as §1

glucosamine-6-phosphate [7] = variants of: B1; assay: self-cleavage kobs at 40 uM GlcN6P; higher = faster cleavage; RNA array
Summary of the method: as §1

Variant	kcat (glucosamine-6-phosphate [1]) [s⁻¹]	KM (glucosamine-6-phosphate [2]) [µM]	self-cleavage kobs at 640 uM GlcN6P (glucosamine-6-phosphate [3]) [s⁻¹]	self-cleavage kobs at 2500 uM GlcN6P (glucosamine-6-phosphate [4]) [s⁻¹]	self-cleavage kobs at 10000 uM GlcN6P (glucosamine-6-phosphate [5]) [s⁻¹]	self-cleavage kobs at 160 uM GlcN6P (glucosamine-6-phosphate [6]) [s⁻¹]	self-cleavage kobs at 40 uM GlcN6P (glucosamine-6-phosphate [7]) [s⁻¹]
AUAAAAGCGCCAGACCUACAGAAAUGUAGUUGACGAGGAGGAGGUUUAUCGAAUUUUAGGCGGAUGCCUCCAAA [A15C C58A]	0.000185 ± 2.6e-05	2130 ± 720	5.17e-05 ± 1.2e-05	8.54e-05 ± 1.6e-05	0.00016 ± 2.1e-05		
AUAAAAGCGCCAGACCUACAGAAAUGUAGUUAACGAGGAGGAGGUUUAUCGAAUAUUCGGCGGAUGCCUCCAAA [A15C G32A U55A]	0.00195 ± 0.00087		0.000233 ± 5.6e-05	0.000416 ± 0.00012	0.00137 ± 0.00022	7.61e-05 ± 2.3e-05	
AUAAAAGCGCCAGACCUACAGAAAUGUAGUUGACGAGGAGGAGGUUUAUCGAAUUUUCGGCGGAUGCCUCGAAA [A15C C71G]	0.000307 ± 5.8e-05	1010 ± 390	0.00011 ± 1.2e-05	0.000299 ± 3.9e-05	0.00025 ± 3.6e-05	4.96e-05 ± 1.3e-05	
AUAAAAGCGCCAGACCUACAGAAAUGUAGUUGACGAGGAGGAGGUUUAUCGAAUUUUCGGCGGAUGCGUCCAAA [A15C C68G]	2.69e-05 ± 6.5e-06			3.22e-05 ± 9e-06			
AUAAAAGCGCCAGACCUACAGAAAUGUAGUUGACGAGGAGGAGGUUUAUCGAAUUUUCGGCGGAUGCCUACAAA [A15C C70A]	6.11e-05 ± 1.2e-05		5.56e-05 ± 1.2e-05	9.56e-05 ± 1.5e-05	4.95e-05 ± 8.2e-06	3.37e-05 ± 1.6e-05	
AUAAAAGCGCCAGACCUACAGAAAUGUAGUUGACGAGGAGGAGGUUUAUCGAAUUUUCGGCGGAUGCCUGAAAA [A15C C70G C71A]	4.1e-05 ± 1.4e-05		6.35e-05 ± 1.7e-05			4.75e-05 ± 2e-05	
AUAAAAGCGCCAGACCUACAGAAAUGUAUUUGACGAGGAGGAGGUUUAUCGAAUUUUCGGCGGAUGCCUCCAAA [A15C G29U]	0.00341 ± 0.00015	2200 ± 140	0.000757 ± 0.00012	0.00169 ± 0.00042	0.00285 ± 0.00042		6.18e-05 ± 8.8e-06
AUAAAAGCGCCAGACCUACAGAAAUGUAGUCGACGAGGAGGAGGUUUAUCGAAUUUUCGGCGGAUGCCUCCAAA [A15C U31C]	0.00282 ± 0.00061	3830 ± 1200	0.000359 ± 4.3e-05	0.00104 ± 0.00023	0.00211 ± 0.00024	0.000136 ± 3e-05	4.49e-05 ± 9.1e-06
AUAAAAGCGCCAGACCUACAGAAAUGUAGCUGACGAGGAGGAGGUUUAUCGGAUUUUCGGCGCAUGCCUCCAAA [A15C U30C A52G G63C]	< 1e-05						
